Measured values from article PMC4464401, “Biochemical properties and yields of diverse bacterial laccase-like multicopper oxidases expressed in Escherichia coli” (Scientific Reports, 2015).

Experiments:
Assay in all cases: spectrophotometric oxidation, Michaelis-Menten fit with uncompetitive substrate inhibition
[1] = molecular target: T1, B. coagulans LMCO (CotA) (Heyndrickxia coagulans, UniProt A0AAN0WB15); format: biochemical; settings: 30 °C
T1 construct: gene SB48_HM08orf01352
T1 sequence (A0AAN0WB15 1-522): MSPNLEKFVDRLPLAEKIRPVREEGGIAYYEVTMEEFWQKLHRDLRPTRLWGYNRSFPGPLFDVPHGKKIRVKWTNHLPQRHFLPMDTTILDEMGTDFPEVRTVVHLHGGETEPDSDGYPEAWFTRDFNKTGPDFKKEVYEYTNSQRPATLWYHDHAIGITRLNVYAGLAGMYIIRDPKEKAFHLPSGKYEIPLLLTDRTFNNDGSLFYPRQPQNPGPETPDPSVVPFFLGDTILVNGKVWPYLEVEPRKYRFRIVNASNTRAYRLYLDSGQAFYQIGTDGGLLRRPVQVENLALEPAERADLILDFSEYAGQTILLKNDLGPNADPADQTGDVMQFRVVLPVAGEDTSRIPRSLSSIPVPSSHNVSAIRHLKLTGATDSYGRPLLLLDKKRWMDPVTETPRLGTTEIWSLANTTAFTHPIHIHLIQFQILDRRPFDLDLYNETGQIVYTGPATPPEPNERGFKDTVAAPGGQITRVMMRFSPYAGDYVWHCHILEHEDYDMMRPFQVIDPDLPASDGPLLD
Excerpt: spectrophotometric oxidation, Michaelis-Menten fit with uncompetitive substrate inhibition on B. coagulans LMCO (CotA)

[2] = substrate: COc1cccc(OC)c1O; format: biochemical, Shouchella clausii; settings: pH 8.0, McIlvaine buffer, 30 °C, pH 8.0
Excerpt: (§1) spectrophotometric oxidation, Michaelis-Menten fit with uncompetitive substrate inhibition on B. clausii LMCO (CotA)

[3] = substrate: CCn1c(=NN=c2sc3cc(S(=O)(=O)O)ccc3n2CC)sc2cc(S(=O)(=O)O)ccc21; format: biochemical, Shouchella clausii; settings: pH 4.0, McIlvaine buffer, 30 °C, pH 4.0
Excerpt: as §1

With `COc1cccc(OC)c1O` [2,6-DMP, 2,6-dimethoxyphenol] the B. coagulans ([1]; pH 7.5, McIlvaine buffer) was 36 ± 9.8 mM.

Work on `CCn1c(=NN=c2sc3cc(S(=O)(=O)O)ccc3n2CC)sc2cc(S(=O)(=O)O)ccc21` [ABTS, 2′-azino-bis(3-ethylbenzthiazoline-6-sulphonic acid)] yielded a B. coagulans ([1]; pH 4.0, McIlvaine buffer) of 0.94 ± 0.11 mM.

B1: B. clausii LMCO (CotA) (Shouchella clausii KSM-K16) (protein)
chain: MELEKFVDPMPIMKTAIPKKTSKDGDYYEIEMKEFSQKLHRDLNPTRLWGYDGQFPGPTIEVMRGKPARIKWMNNLPDTHFLPIDRSIHHVAHEPEVRTVVHLHGSETTPASDGYPEAWFTKDFAEVGSFFEQETYEYPNDQRAATLWYHDHAMGITRLNVYAGLSGLYIIRDPREEQLNLPKGEFDIPLLIQDRSFNDDGSLFYPAQPANPAPNLPNPSVLPFFVGDTILVNGKVWPYLQVEPRKYRFRILNGSNSRSYQLALDSEAPFYQIASDGGLLRRTVSLQAFDIRPAERIEAIIDFSKFEGQTITLKNNASTDATADVMQFQVVLPLSGEDTSIIPQNLSYIPSLQQNDVKRIRNLKISGTTDEYGRPLLLLNNKLWSDPVEEKPCLGTTEIWSFVNVTNVPHPMHIHLVQFQLLDHRAFNVELYNENGQIELVGPTIPPKINERGWKDTITAPAGQITRVIARFAPFSGYYVWHCHILEHEDYDMMRPFVVIDPKTEKERR
B1 showed a Km [2] of 8.535 ± 2.394 mM, a kcat [2] of 65 ± 15.2 s⁻¹ and a Km [3] of 0.132 ± 0.011 mM. For the same molecule, the kcat [3] was 90 ± 2.3 s⁻¹.
